Changes are numbered by the printed parent chain.

In one experiment the test system is RSV F antibody (11A9). In words: Binding of epitope II of RSV F antigen mutants by flow cytometry. To be noted: epitope II, antibody 11A9. The method, boiled down: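 293T cells were transfected with mRNA-LNP (300 ng mRNA) encoding the RSV F mutants and harvested after 16 h. Cells were stained with fluorescent 3C12 (pre-F-specific epitope Φ) or 11A9 (epitope II, pre-F and post-F) for 2 h at 4 °C in the dark, then washed and read by flow cytometry on 1×10^4 cells per measurement.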

Experiment [1] concerns the target RSV pre-F antibody (3C12). Description: Affinity of RSV F antigen mutants by BLI, epitope Φ. The format is binding. The protocol: To investigate the affinity of the RSV F antigen mutants for antibodies specifically recognizing epitopes in a pre-fusion conformation, the affinity was determined by a bio-layer interferometry (BLI) method in this example.
• 293T cells (purchased from ATCC cell bank); • RSV pre-F antibody (3C12), epitope Φ (Novoprotein, Cat. No.: DA101); • RSV pre-F antibody (7H11), epitope Quaternary (Novoprotein, Cat. No.: DA109); • Experimental group: mRNA vaccines after screening in Example 6;
Protein sample preparation: the experimental procedure was the same as in Example 3.
The antibodies were each diluted to 10 µg/mL with a 1×PBST solution. […]
The detection was performed using a protein interaction analyzer, and the results were analyzed using Data Analysis 12.0 software to obtain the binding rate, dissociation rate, and affinity constants.
Bio-Layer interferometry (referred to as BLI) is a label-free real-time monitoring optical detection technique, mainly used for comprehensive quantitative analysis of the interaction between biomolecules and protein concentration determination. […]
In the present application, the affinity of target proteins for 2 antibodies was analyzed by a BLI method, wherein the RSV pre-F antibody (3C12) recognizes the epitope […], and the RSV pre-F antibody (7H11) recognizes the epitope Quaternary.

Experiment [2] concerns the target RSV pre-F antibody (7H11). In words: Affinity of RSV F antigen mutants by BLI, epitope Quaternary. It counts as binding.
Excerpt: The antibodies were each diluted to 10 g/mL with a 1×PBST solution.

B1: YK-RSV-009 (protein)
chain: QNITEEFYCSTCSAVSKGYLGALRTGWYTSVILIELSNIKENKCNGTDAKVKLIKQELDKYKNAVTDLQLLMQSTPATGSGSAIASGVAVSKVLHLEGEVNKIKSALLSTNKAVVSLSNGVSVLTFKVLDLKNYIDKQLLPIVNKQSCSIPNIETVIEFQQKNNRLLEITREFSVNAGVTTPVSTYMLTNSELLSLINDMPITNDQKKLMSNNVQIVRQQSYSIMSIIKEEVLAYVVQLPLYGVIDTPCWKLHTSPLCTTNTKEGSNICLTRTDRGWYCDNAGSVSFFPQAETCKVQSNRVFCDTMNSRTLPSEVNLCNVDIFNPKYDCKIMTSKTDVSSSVITSLGAIVSCYGKTKCTASNKNRGIIKTFSNGCDYVSNKGVDTVSVGNTLYYVNKQEGQSLYVKCEPIINFYDPLVFPSSEFDASISQVNEKINQSLAFIRKSDELLHNVNAGKSTTNIMITTIIIVIIVILLSLIAVGLLLY
For B1, in the experiment with RSV F antibody (11A9), the “RSV F antibody (11A9) Epitope II (%) binding rate” value (“RSV F antibody … (%) binding rate” for short) is recorded as 93.1%.

B2: YK-RSV-048 (protein)
chain: QNITEEFYQSTCSAVSKGYLGALRTGWYTSVITIELSNIKENKCNGTDAKVKLIKQELDKYKNAVTDLQLLMQSTPATGSGSFLGFLCGVGSAIASGVAVSKVLHLEGEVNKIKSALLSTNKAVVSLSNGVSVLTFKVLDLKNYIDKQLLPILNKQSCSIPNIETVIEFQQKNNRLLEITREFSVNAGVTTPVSTYMLTNSELLSLINDMPITNDQKKLMSNNVQIVRQQSYSIMSIIKEEVLAYVVQLPLYGVIDTPCWKLHTSPLCTTNTKEGSNICLTRTDRGWYCDNAGSVSFFPQAETCKVQSNRVFCDTMCSRTLPSEVNLCNVDIFNPKYDCKIMTSKTDVSSSVITSLGAIVSCYGKTKCTASNKNRGIIKTFSNGCDYVSNKGVDTVSVGNTLYYVNKQEGQSLYVKGEPIINFYDPLVFPSDEFDASISQVNEKINQSLAFIRKSDELLHNVNAGKSTTNIMITTIIIVIIVILLSLIAVGLLLY
Usually Kd stands for the concentration at which binding is half-saturated. A low value points to tighter binding. Consider B2, for which the Kd came out at 0.183 nM in experiment [1] and 0.227 nM in experiment [2]. Besides, the “RSV F antibody … (%) binding rate” value with RSV F antibody (11A9) is on record as 95.1%.

B3: YK-RSV-050 (protein)
chain: B2 chain with L87C, C88L
Turning to B3, the Kd in experiment [1] worked out at 0.552 nM; in experiment [2], 0.115 nM. Also, the “RSV F antibody … (%) binding rate” value in the experiment on RSV F antibody (11A9) stood at 93.0%.

(Values after patent publication US12514920B1, “Respiratory syncytial virus mRNA vaccine, and preparation method therefor and use thereof” (Hangzhou Tianlong Pharmaceutical Co., Ltd., priority 2024, dated 2026).)
